Drawing on the supplement of paper PMC11502859, this text covers median enrichment for 98 substances.
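Further: lentiviral eGFP-IRES-mCherry reporter pool sorted by FACS 96 h post-transduction, gated on mCherry-high cells, Illumina read counts normalized per million, median across four biological replicates.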

The test system of this data set is HEK293T. As to the kind of experiment: median enrichment of reporter reads in eGFP-reduced (low/intermediate) vs eGFP-high sorted cells (eGFP-extension fusion abundance) (ratio); higher = stronger loss of eGFP-fusion protein abundance (more destabilising extension).
In the case of “STSPAPLRTPPRLDGWAHASHWGPGSRRWAPTLGPRGAANHTGLRPSYPAPSPSTSTFTSPPFHFFLYVFFLLETDSIHIEYN [JUNB]”, the median enrichment was 4.9.

For the substance “QGNWALPHVFLLPPRDSNDMYSHLGHACLPNTIWSWTTFDTNQSYWTRPLEDLKYTSHAVVYLGCDSLSNAALGKDESDLQGE [APOBEC2]”, the median enrichment was determined as 6.1.

As to “CGLLPLGPLTLSGWWTTKYNPVYNLKIYFTFVLLYLFIKG [SMAD4]”, the median enrichment was determined as 2.65.

Take KLSNH [WDR27]: the median enrichment was determined as 0.453.

As to “WGHQSPQWTDAFDGQDEGQGHWSEGVDKTAAI [TBC1D21]”, the median enrichment was 0.0629.

With YGAPTFDFYLSSSWIF [HMGA2], the median enrichment stood at 9.36.

Turning to YKSKNIFLKVMMHSFGW [CENPW], the median enrichment was 4.27.

On to “QDTVNSSSKILACKHPLKFKRGKIKYNEF [ANKRD30BL]”, for which the median enrichment was 1.66.

Turning to LNILKCKASTV [TRAPPC6B], the median enrichment was 1.63.

With AAAAAAAAAA [Ala10], the median enrichment is 8.89.

As to SFTHHMDSIYKSQ [EDNRB], the median enrichment came to 1.08.

As to QLPMPPQNWLLRVN [TSC22D1], the median enrichment was found to be 4.17.

As to “SGWLSTCSSWMASGPKLQSLNDQEQHEGLGTYPCKEFLDG [SQOR]”, the median enrichment stood at 1.57.

Take WLLITLSHFLVMH [KRTAP22-2]: the median enrichment turned out to be 13.9.

For QRFSSEKNLCLIF [PHACTR3], the median enrichment is 9.78.

As to KQP [PSG11], the median enrichment came out at 0.269.

Turning to QLFLKMAIVYEICISVSLYKF [NUP133], the median enrichment was determined as 11.5.

With “YEGPSRRATQATVPVPAFPTPAVAPPHPLPLFVPFDERLFTGVGWRDGLEGAQSIRLQGPSWEK”, the median enrichment came to 2.44.

Regarding LLTVFHKEDV [ATP2A2], the median enrichment was 10.9.

“QDFMHSSERVTVTTVLSPISHKLLFVSKRMLLLLHCFPFAGTCWCLLLNWPALLAVWHCSLGRLLCSLYLHYRLVNLPTSSL [DCUN1D4]”: the median enrichment is 6.12.

Take YLLKYRNLNNVKLD [TJP1]: the median enrichment turned out to be 4.45.

In the case of WRLSISRDMVLTQQFPVMAKCSI [IL13RA2], the median enrichment came out at 5.59.

Turning to RAAQKETTKPLTVVTLDKETPVA [CAPRIN2], the median enrichment was 45.5.

For the substance RELHYPFPSQTTN [MDC1], the median enrichment turned out to be 0.473.

Take QTTFPKENIRGFHC [CPVL]: the median enrichment was determined as 0.323.

As for LKINC [FGG], the median enrichment came to 0.827.

As for LRMWKITCFYLELFNLKIRNCFLLLSQ [CCDC34], the median enrichment was 26.1.

Take “YRRLPRAPPHSMTRLWIPHCTSHSPLSAPSPPCWSCSHTPGTGLGHPLLPACVFLILGRPG [KRT71]”: the median enrichment is 6.31.

As to “YEEVSATSPPEPAVIFTAPAHLSPTCSFDPWTWYTSMWSCWARGVLCAVNSVGSCSGVGARFLPPWAEGPFPLVLCPHPPPFS [KLHDC3]”, the median enrichment is 5.82.

Take AAAAAAAAA [Ala09]: the median enrichment came out at 8.59.

For “CAQDGPRPSMANNHVRHSTSGRCSDASAGAGTPNPWLQNRDPHPDRGSSAFEGFQAGLCGTEAQRGPGTWQRWGREEIQLPSL [CCDC86]”, the median enrichment was 5.52.

As to SLKPITVLTAQWN [KCNA2], the median enrichment is 10.7.

For the substance “QAPTLLLLALLPASVQRTGRYWWEALCLAPQLPVWASKHNGPSRSLVETGVVVPNLPSALPLHRTQRPQALQGVLVPAFPRTS [AMIGO3]”, the median enrichment is 1.8.

As for GWGLQGRGLAPFSLSY [NR1H4], the median enrichment worked out at 13.8.

In the case of “QRPLPGPSPAPRAPRPGPGARQTPACAPAERRLETGATASRVQQHSRHGSGRDSAWPRGTFPGQGPGGNWHGLVPLLCCILIP [ANKRD13B]”, the median enrichment turned out to be 7.68.

Take “REEWGRLRSCGPRPRSLRGCLGDHLDLEAESAILPD [DHRS2]”: the median enrichment was found to be 2.36.

For the substance “YATRRCPRPSRRRGSLAGAAPPCVRPAGAHVF [HHIPL1]”, the median enrichment was found to be 11.3.

Turning to QPGT [ZNF445], the median enrichment turned out to be 1.04.

RTILELTRFVCL [KRTAP20-1]: the median enrichment turned out to be 7.89.

For LNLNGHYKLSNST [ARMC4], the median enrichment was 1.8.

On to WNR [ZC3HAV1], for which the median enrichment was determined as 0.487.

Consider “WCLGSTCLLSPQGLSLASLQWGCCVSVHLRLLCLCLLHHAGVWEEWTDRG [TCL1A]”, for which the median enrichment came to 4.56.

For the substance “KGPPLLILPTPPPRFSHWPGLGCPYRRSVCSPTVRRGHTLQNTAQNSKKSLHAK [IFI35]”, the median enrichment was 11.2.

On to YFMSFSISAADLC [DNAJC6], for which the median enrichment was determined as 25.5.

For YQNNGFL [GNL3], the median enrichment was 1.22.

Turning to RASSFS [KLHL10], the median enrichment is 0.821.

With “QCLWPSILISLMRILLALLSLVGICQAQCFNLKLILCFRCQSRYQQPFDPTTALYILVEDFHPCAWKRCSWYIVKK [TCEAL3]”, the median enrichment was 10.4.

REDHGLSVPQSQLPDG [TBC1D10C]: the median enrichment is 1.36.

With WWWWWWWWW [Trp09], the median enrichment was found to be 3.84.

For the substance “WVDGRNIFINQIESIYKNGSRILPQFFCQKVCIYVCIYIYLYIYMTDVF [GCC2]”, the median enrichment is 11.6.

Take “GGLLALTLQPTLAVWPSPGSFPAPLPLFPVLLNSPSWRVQALGMGGTRPHSFHRALRPDTADQPHSAQEAASGVGAQRGTAAS [BAP1]”: the median enrichment was determined as 5.39.

On to RYC [NCK1], for which the median enrichment turned out to be 0.896.

In the case of SPSASSRKNKKSRTWQVFSICCKYVY [FBXL13], the median enrichment amounted to 8.34.

KKK [Lys03]: the median enrichment is 0.373.

Regarding “LNREKKLQVVLKEMQLFKSLCIVLILFTMCNHLENGYFYNLNNKQVLS [C8orf34]”, the median enrichment was 2.33.

Regarding YINKIRRGSETEKEKAKDWFVCLISFC [NR2F2], the median enrichment was 9.01.

Consider “WARGHARAVQSWPGPPVGLLCSLPSLPPDAGPCCSLRTIRSSCSCHPHLETCLCAHLKMGSVPVLKCPVAAPVVEDQGLRFGT [FRMD8]”, for which the median enrichment was found to be 5.56.

For WQDLLTSS [VN1R4], the median enrichment came to 0.623.

Regarding QSSF [PCNX4], the median enrichment was found to be 0.571.

For the substance LSEQVNSRTGAEALPKMK [UVRAG], the median enrichment came out at 0.405.

Take “SPWSLVPGARASPPFHQPHRPLRGWSPLPGHGGRIPLGWSRLEKLLCQVCSLSAIVTSLPRGGDHITKRNSPFSKG [TCF21]”: the median enrichment turned out to be 3.11.

As for “YRLFVHYCFHFVPRVKQTTEKSNQVITYPSAGDFDY [ZBBX]”, the median enrichment turned out to be 10.1.

For the substance “QPPAILPHPPPSPPVSTWSALPHPPPTELGCITFFHLKERSRF [MROH5]”, the median enrichment was 4.47.

On to RDASTGPSLFCPQP [HSPB8], for which the median enrichment is 0.453.

Consider “QGPPNLIAGHSQPSESESRFLLSLPSSPLETQLLSQVRQWAGSCFISLSLSIPLCLVSLPLVSAWQPPPPTYHPSPITQVNVT [PGLYRP4]”, for which the median enrichment is 3.73.

Take RTCGRPF [CMTM1]: the median enrichment worked out at 6.49.

As for “LPCSSTVTTRQALLSAEGVIPGPPVCVIVTMPCRDILEATHGWRNPEPPPQPTWLFVDSRRQGCAWLLTCC [PFKFB4]”, the median enrichment is 11.1.

Turning to “RNHKEPSVPVHEISLLLENRNIDYQITMQLKPYCFFEQLFIPVIKTDCAEYSKRSEIGVYNYIFSDAIY [RPE]”, the median enrichment is 8.87.

Consider “LIQHREVAACDLTHRFLCFLSHPGNLAFWFLPATLRLSSSAFQ [FHL2]”, for which the median enrichment is 7.42.

Turning to EGN [CYTL1], the median enrichment worked out at 0.312.

For the substance EFLSHSPTSTTTGQLSPFPTL [RNASE13], the median enrichment stood at 0.565.

YDSNPDPGLIFQSPPSCGTASVC [NFKBID]: the median enrichment is 4.34.

Consider ESSTLLLQWVQKLLRPVVK [MYLK3], for which the median enrichment turned out to be 7.

For REA [NPSR1], the median enrichment was found to be 4.09.

As for QTGRLDF [RPL24], the median enrichment was found to be 0.466.

On to LVSCLKGGNRKSRLLSVKFVLPVCC [PCMTD2], for which the median enrichment was determined as 7.69.

YMKLDI [ARF4]: the median enrichment worked out at 1.7.

For TTTTT [Thr05], the median enrichment worked out at 0.336.

Regarding “ELLPLSTRSSWQRELRTAAALSVRWRPTSRFCPALCG [ACVR1B]”, the median enrichment was 9.04.

As to YELEQLGNKLSTSRHLLSFAMCLMP [OR51A7], the median enrichment was determined as 3.52.

In the case of “FPPPPSSGSPRSNVPPATFPLWPPAELICLSHRSWCLPLHRSLNAATLAGSRWKLVEGPCQVTAMLSLSRHGPGSFRHIQILH [S100A7A]”, the median enrichment amounted to 8.52.

In the case of “SAPDSASALLTFYPVSLPSPLKAGAPRELPWSSLPGRV [PKMYT1]”, the median enrichment was found to be 8.2.

Turning to “RACGAAGAGEASRGRVLRQELDSPTLLSSRQGPGSHILLTLERLELTPLDGKCISEKGKAAWGSPI [SLC1A7]”, the median enrichment turned out to be 9.89.

For the substance “QESKSTLPSHHHGPTGYPEQLHTLLEVSRSLPA [ADAMTSL1]”, the median enrichment was 2.98.

YILPEDKEKSKYCIGT [IRAK3]: the median enrichment came out at 9.91.

On to YCLKGFY [GNL2], for which the median enrichment turned out to be 8.39.

Regarding WRCRHPSPIIKST [CPS1], the median enrichment came out at 8.4.

Consider QCLPERVVRWCHVGEQVSFRTQRRPPFCK [ACTR3B], for which the median enrichment came to 5.17.

In the case of “EVKGSIQVLHLVLPCLLSDHSDGLMWLLMWNCRRVQRRVCNKAIGKHTGAFPSPSGPRPLSKLDNFLLSCLFPALKLKQEIFW [HS3ST3B1]”, the median enrichment was 9.3.

As for “ELSASARRASLPNQPWVPGSRLEPAINSLFLAPGSNGGPHLRTSGEAIAPSGEVMHFLSTYCLPGPRAHGEETWAHPCRKRDN [TSSK6]”, the median enrichment came to 3.11.

Take WRLRASRRDLMPRGGGCL [CTU1]: the median enrichment was 5.49.

Take “YPVTPRDCLVQVVAAGGTHAAPRSEQTLPCRPAPAGPDGPLWRLDLLGQAALGLSAPSCLSRCDRARPKPGCTLLDWASLHCL [MLST8]”: the median enrichment was determined as 4.58.

As to EGGALCLCLPV [CTSE], the median enrichment amounted to 7.51.

In the case of “FILERNSTNVKNVTKLLSISLTLLHIRKFILEKNPTDVKNVAKPLSTPLNLLHIRDFILERNPTDVNNVVKLFTYPHTLLHIR [ZNF626]”, the median enrichment worked out at 8.24.

In the case of YVPTK [ZNF334], the median enrichment was 0.591.

Take SRY [IL32]: the median enrichment amounted to 0.749.

Regarding LNI [WDR78], the median enrichment was found to be 0.527.

Consider GGPSV [NDUFV3], for which the median enrichment is 0.139.
